# Measured values as given in publication PMC5177622, “Multivalent Histone and DNA Engagement by a PHD/BRD/PWWP Triple Reader Cassette Recruits ZMYND8 to K14ac-Rich Chromatin” (Cell Reports, 2016).
# Experiments:
# [1] = target: ZMYND8 PHD/BRD/PWWP triple reader cassette (Q83-S406), wild type (human); experiment: ITC; ITC200; peptides titrated into a solution of ZMYND8; single-site binding model; n = 3
# histone H3 K9ac (m36) = experiment: anti-FLAG immunoprecipitation and western blot, quantified; conditions: HEK293 cells transiently transfected; three biological replicates; anti-H3K9ac blot; parent: est. 1.0; read off a plot
# histone H3 K36me (m36) = experiment: as above; conditions: HEK293 cells transiently transfected; three biological replicates; anti-H3K36me blot; parent: est. 1.0; read off a plot
# histone H3 K36me2 (m36) = experiment: as above; conditions: HEK293 cells transiently transfected; three biological replicates; anti-H3K36me2 blot; parent: est. 1.0; read off a plot
# histone H3 K36me3 (m36) = experiment: as above; conditions: HEK293 cells transiently transfected; three biological replicates; anti-H3K36me3 blot; parent: est. 1.0; read off a plot
substance,measurement,setting,value
"Histone H3.3 40-aa recombinant peptide, K14ac (from UniProt P84243 2-41)",Kd,[1],6.8 µM
"3×FLAG-ZMYND8 full length, wild type (from UniProt Q9ULU4-13) N228F",ratio to parent,histone H3 K9ac (m36),0.19
"3×FLAG-ZMYND8 full length, wild type (from UniProt Q9ULU4-13) F288A; W291A",ratio to parent,histone H3 K36me (m36),0.28
same,ratio to parent,histone H3 K36me2 (m36),0.08
same,ratio to parent,histone H3 K36me3 (m36),0.39
